Experimental data as given in article PMC8867190, “Ultrasensitive DNA‐Biomacromolecule Sensor for the Detection Application of Clinical Cancer Samples”.

Experiments:
Nucleolin (NCL) = Nucleolin (NCL) (UniProt P19338 2-710); assay: electrochemical strand displacement (SWV); 100 nM NCL; signal gain 357.19%; 10 mM phosphate buffer, 1 M NaCl, pH 7.4, room temperature; 30 nM aptamer/signal duplex (prepared in 20 mM Tris, 50 mM MgCl2, pH 8.0, diluted 60 uL into 1940 uL PBS); details: protein: commercial; assayed prehybridized with NCL-SP S10 (3'-MB), displaced by target; printed S10 only partly complementary
[1] = molecular target: Neutrophil gelatinase-associated lipocalin (NGAL) (UniProt P80188 21-198); assay: electrochemical strand displacement (SWV); 100 nM NGAL; signal gain 200.85%; 10 mM phosphate buffer, 1 M NaCl, pH 7.4, room temperature; 30 nM aptamer/signal duplex (prepared in 20 mM Tris, 50 mM MgCl2, pH 8.0, diluted 60 uL into 1940 uL PBS); details: protein: commercial; assayed prehybridized with NGAL-SP S7 (3'-MB), displaced by target; printed S7 only partly complementary
Luteinizing hormone (LH) = Luteinizing hormone (LH) (UniProt P01215;P01229 25-116;21-141); assay: electrochemical strand displacement (SWV); 10 pM-10 uM LH; detection limit 10 pM (not a Kd); displaces signal probe; 10 mM phosphate buffer, 1 M NaCl, pH 7.4, room temperature; 30 nM aptamer/signal duplex (prepared in 20 mM Tris, 50 mM MgCl2, pH 8.0, diluted 60 uL into 1940 uL PBS); details: protein: commercial; copies: 1;1; assayed prehybridized 1:1 with signal probe S3 (3'-MB), complementary to aptamer nt 1-15; S3 is displaced by target; G-quadruplex predicted
Luteinizing hormone (LH), sequence (P01215 25-116, chain 1 of 2): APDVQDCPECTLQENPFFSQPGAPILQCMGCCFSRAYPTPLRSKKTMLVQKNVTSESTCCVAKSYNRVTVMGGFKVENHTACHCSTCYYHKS
Luteinizing hormone (LH), sequence (P01229 21-141, chain 2 of 2): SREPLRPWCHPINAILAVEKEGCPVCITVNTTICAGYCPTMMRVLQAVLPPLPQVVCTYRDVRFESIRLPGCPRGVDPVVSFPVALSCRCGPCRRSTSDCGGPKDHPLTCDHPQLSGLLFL

Neutrophil gelatinase-associated lipocalin (NGAL), sequence (P80188 21-198): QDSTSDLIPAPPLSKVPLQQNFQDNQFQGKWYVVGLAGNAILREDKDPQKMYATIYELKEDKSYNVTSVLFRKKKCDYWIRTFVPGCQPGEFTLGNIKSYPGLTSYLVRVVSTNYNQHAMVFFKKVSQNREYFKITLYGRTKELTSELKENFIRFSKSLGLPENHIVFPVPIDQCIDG
Nucleolin (NCL), sequence (P19338 2-710): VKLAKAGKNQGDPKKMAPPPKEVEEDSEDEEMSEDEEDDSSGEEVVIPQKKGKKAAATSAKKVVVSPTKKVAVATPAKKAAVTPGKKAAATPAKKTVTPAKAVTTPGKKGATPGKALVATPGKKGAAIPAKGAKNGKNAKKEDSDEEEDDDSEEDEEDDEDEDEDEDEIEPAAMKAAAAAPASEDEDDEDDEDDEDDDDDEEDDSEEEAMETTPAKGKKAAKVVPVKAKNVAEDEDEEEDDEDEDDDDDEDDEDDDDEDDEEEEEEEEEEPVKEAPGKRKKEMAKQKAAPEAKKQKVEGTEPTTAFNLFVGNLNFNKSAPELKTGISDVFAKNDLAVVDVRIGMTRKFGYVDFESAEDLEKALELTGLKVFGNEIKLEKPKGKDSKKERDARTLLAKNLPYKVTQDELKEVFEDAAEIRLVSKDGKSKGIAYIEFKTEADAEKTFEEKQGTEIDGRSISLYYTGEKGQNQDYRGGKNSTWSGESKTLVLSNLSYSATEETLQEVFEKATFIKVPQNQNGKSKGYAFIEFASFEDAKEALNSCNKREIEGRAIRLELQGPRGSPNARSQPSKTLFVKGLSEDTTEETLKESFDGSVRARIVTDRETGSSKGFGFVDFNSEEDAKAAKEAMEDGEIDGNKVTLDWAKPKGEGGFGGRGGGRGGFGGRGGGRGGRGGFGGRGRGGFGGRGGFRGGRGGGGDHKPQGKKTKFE

B1: Nucleolin aptamer (ssDNA)
DNA: GGTGGTGGTGGTTGTGGTGGTGGTGGTTTTTT
binding result (Nucleolin (NCL)): binds

B2: NGAL aptamer (ssDNA)
DNA: AGCAGCACAGAGGTCAGATGGCGCTGGATAGCAAGATCACGTTATCATCGTAAACCCTATGCGTGCTACCGTGAA
binding result [1]: binds

B3: LH aptamer (structured_DNA)
DNA: TATGGTATGCTGTGTGGTATGGGGTGGCGTGCTCT
binding result (Luteinizing hormone (LH)): binds
